Measured values from PMC5379935, “Crystal structure and RNA-binding properties of an Hfq homolog from the deep-branching Aquificae: conservation of the lateral RNA-binding mode” (Acta Crystallographica. Section D, Structural Biology, 2016).

Experiments:
[1] = biological target: T1, Aae Hfq (Aquifex aeolicus, UniProt O66512 1-80); assay: fluorescence polarization; no significant binding detected; FP: 50 mM Tris pH 8.0, 500 mM NaCl, 5 nM FAM-RNA, +/- 10 mM MgCl2, 45 min, room temperature; details: protein: recombinant; tags: 6xHis removed by thrombin; residual N-terminal G-2 S-1 H0; chain copies: 6; label: FAM; single strand
T1 sequence: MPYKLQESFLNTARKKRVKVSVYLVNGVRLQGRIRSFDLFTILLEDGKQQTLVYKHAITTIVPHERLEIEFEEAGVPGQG

[2] = biological target: the molecule itself; assay: SEC-MALS; Superdex 200 Increase 10/300 GL, 50 mM Tris pH 8.0, 200 mM NaCl; Aae Hfq alone; monodisperse peak
[3] = biological target: the molecule itself; assay: cross-linking; formaldehyde, indirect (vapor-diffusion) method, 0.6 mg/ml Hfq in 25 mM HEPES pH 8.0, 500 mM NaCl, 310 K, 40 min; read out by MALDI-TOF MS
[4] = biological target: T1, Aae Hfq; assay: fluorescence polarization; no Mg2+; per hexamer; 4-parameter fit, Hill 1.3; FP: 50 mM Tris pH 8.0, 500 mM NaCl, 5 nM FAM-RNA, +/- 10 mM MgCl2, 45 min, room temperature; details: protein: recombinant; tags: 6xHis removed by thrombin; residual N-terminal G-2 S-1 H0; chain copies: 6; label: 5'-FAM; single strand
[5] = biological target: T1, Aae Hfq; assay: fluorescence polarization; 10 mM Mg2+; per hexamer; 4-parameter fit, Hill 1.7; FP: 50 mM Tris pH 8.0, 500 mM NaCl, 5 nM FAM-RNA, +/- 10 mM MgCl2, 45 min, room temperature; details: protein: recombinant; tags: 6xHis removed by thrombin; residual N-terminal G-2 S-1 H0; chain copies: 6; label: 5'-FAM; single strand
[6] = biological target: T1, Aae Hfq; assay: fluorescence polarization; no Mg2+; per hexamer; 4-parameter fit, Hill 2.2; FP: 50 mM Tris pH 8.0, 500 mM NaCl, 5 nM FAM-RNA, +/- 10 mM MgCl2, 45 min, room temperature; details: protein: recombinant; tags: 6xHis removed by thrombin; residual N-terminal G-2 S-1 H0; chain copies: 6; label: 5'-FAM; single strand
[7] = biological target: T1, Aae Hfq; assay: fluorescence polarization; 10 mM Mg2+; per hexamer; 4-parameter fit, Hill 2.4; FP: 50 mM Tris pH 8.0, 500 mM NaCl, 5 nM FAM-RNA, +/- 10 mM MgCl2, 45 min, room temperature; details: protein: recombinant; tags: 6xHis removed by thrombin; residual N-terminal G-2 S-1 H0; chain copies: 6; label: 5'-FAM; single strand

AAAAAA (ssRNA) [FAM-A6]: no binding [1].

B1: Aquifex aeolicus Hfq (working construct after proteolytic removal of the 6xHis tag, 83 amino acids) (natural protein)
chain: GSHMPYKLQESFLNTARKKRVKVSVYLVNGVRLQGRIRSFDLFTILLEDGKQQTLVYKHAITTIVPHERLEIEFEEAGVPGQG
notes: three plasmid-derived residues (G-2, S-1, H0) that remain at the N-terminus after thrombin cleavage of the 6xHis tag; 83 residues, 9482.9 Da after tag removal (cleaved at G-2); Hexameric ring; two rings stack into a dodecamer in the P1 crystal, on cross-linking, and in solution with A18 RNA; also called Aae Hfq; (Hfq)6; not shown: His6, N-terminal, cleaved
With B1 the “stoichiometry N” value [2] was 6 and the “stoichiometry N” value [3] was 12.

Work on UUUUUU (ssRNA) [FAM-U6] yielded a Kd [4] of 21.3 nM and a Kd [5] of 2.1 nM.

AAAAAAAAAAAAAAAAAA (ssRNA) [FAM-A18] was tested, and the Kd [6] was 17.4 nM and the Kd [7] was 9.5 nM.

CCCCCC (ssRNA) [FAM-C6]: no binding [1].
